Assay: yeast display, Sf9 membrane polyspecificity reagent, FACS + sequencing; frameworks hold sequencing errors
In short: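 Genes from sorted yeast were amplified by colony PCR, read by MiSeq 2 × 250 sequencing and filtered on CDR length. These cells carried a synthetic nanobody library in Saccharomyces cerevisiae BJ5465 and were sorted by FACS into low and high (top ~1%) gates on anti-HA and streptavidin fluorescence. Polyreactivity is labelled according to the gate of origin.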

Row | Sequence | polyreactivity (PSR sort gate)
1 | QVQLVESGGGLVQAGGSLRLSCAACGSTFWYYVMGWYRQAPGKERELVAAISTRGDSTYYADSVKGRFTISRDNAKNTVYLQMNSLKAEDTAVYYCAKSRQSSGRVRFDYWGQGTQVTVSS | low polyreactivity
2 | QVQLVESGGGLVQAGGSLRLSCAAFGFTFNAYALGWYRQAPGKERELVAGITSSGGGTYYADSVKGRFTISRDNAKNTVYLEMNSLKPEDTAVYYCNTYSYLFSRYGYWGQGTQVTVSS | high polyreactivity
3 | QVQLVESGGGLVQAGGSLRLSCAAFGPIFQYYAMGSYRQAPGKERELVAAITRSGGSTYYADSVKGRFTISRDNAKNTVYLQMNSLKPEDTAVYYCAAYSRYTVREGYDYWGQGTQVTVSS | high polyreactivity
4 | QVQLVESGGGLVQAGGSLRLSCAAPGSTFVAYAMGWYRQAPGKERELVAAISSVGRTNYADSVKGRFTISRDNAKNTVYLQMNSLKPEDTAVYYCAAVYVDRRKRSYYWGQGTQVTVSS | high polyreactivity
5 | QVQLVESGGGLVQAGGSLRLSCAASAGTFWNAMGWYRQAPGKERELVATITSGSSTNYADSVKGRFTISRDNAKNTVYLQMNSLKPEDTAVYYCNARTIPWPYIVSYDYWGQGTQVTVSS | high polyreactivity
6 | QVQLVESGGGLVQAGGSLRLSCAASALTLRTYAMGWYRQAPGKERELVAAITTGGSTYYADSVKGRFTISRDNAKNTVYLQLNSLKPEDTAVYYCAADFIRYINRLLYDYWGQGTQVTVSS | low polyreactivity
7 | QVQLVESGGGLVQAGGSLRLSCAASARIFDTYAMGWYRQAPGKETELVDSISIDGSTYYADSVKGRFTISRDNAKNTVYLQMNSLKPEDTAVYYCNADGRYYTVRFEYWGQGTQVTVSS | low polyreactivity
8 | QVQLVESGGGLVQAGGSLRLSCAASARIFPVYAMGWYRQAPGKERELVAAISRSAGRTYYADSVKGRFTISRDNAKNTVYLQMNRLKPEDTAVYFCAAQSPYGYDYWGQGTQVTVSS | low polyreactivity
9 | QVQLVESGGGLVQAGGSLRLSCAASARIYTTYAMGWYRQAPGKERELVASITTTDTRTYADSVKGRFTISRDNAKNTVYLQMNSLKPEDTAVYYCAKDRLNKGRYYRGASDYWGLGTQVTVSS | low polyreactivity
10 | QVQLVESGGGLVQAGGSLRLSCAASARTFKPYAMGWYRQAPGKERELVAAISTRGGSTYYADSVKGRFTISRDNAKNTVYLQMNSLKPEDTAVYYCAATQPCRDYDYWGQGTQVTVSS | low polyreactivity
11 | QVQLVESGGGLVQAGGSLRLSCAASARTFSYYTMGWSRQEPGKARELVARISNRGTNTYYADSVKGRFTISRDNAKNTVYLQMNSLKPEDTAVYYFAKYYYSSIVGYDSWGQGTQLTVSS | low polyreactivity
12 | QVQLVESGGGLVQAGGSLRLSCAASARTYGNYAMGWYREAPGKERELVADITRRGGSTSYADSVKGRFTISRDNAKNTVYLQMNSLKPEDTAVYYCNKRTTPYYAQGISRLEYDYWGQGTQVTVSS | low polyreactivity
13 | QVQLVESGGGLVQAGGSLRLSCAASASIFAYKAIGWYRQAPGKESELVASITNGGSTYYADSVKGRFTISRDNAKNTVYLQMNSLKQEDTAVYYCNTDFDVYSVGYDGYWGQGTQVTVSS | low polyreactivity
14 | QVQLVESGGGLVQAGGSLRLSCAASASIFILNAMGWYRPAPGKERELVAAISWSGGRTNYADSVKGRFTISRDTAKNTVYLHMNSLKPEETAVYFCAARVTPYRGFYYWGQGTQVTVSS | high polyreactivity
15 | QVQLVESGGGLVQAGGSLRLSCAASASIFNYYAMGRYRQAPGKERELVAAITSGGSTYYADSVKGRFSISRDNAKNTVYLQMNSVKPEDTAVYYCNKAFPYIYDYWGQGTQVTVSS | low polyreactivity
16 | QVQLVESGGGLVQAGGSLRLSCAASASILVRYAMVCYRQAPGKKREMVSAITATSGGTYYADSVKGRFTFSLDNAKNTVYLQMYSLKPEDTAVYYCNADGGSGAYLDLTITDYDYWGQGTQVTVSS | low polyreactivity
17 | QVQLVESGGGLVQAGGSLRLSCAASASIYAHYEMGWYRQAPGKERELVAAITASGGTTYYADSVKGRFTISRDNAKNTVYLQMNSLKPEDTAVYYCNAGKRTFLYDRDDYWGQGTQVTVSS | high polyreactivity
18 | QVQLVESGGGLVQAGGSLRLSCAASASTFSTYAMGSYRQAPGKERELVAAISWSGGSTNYADSVKGRLTISRDIAKYTVYLQMNSLKPEDTAVYYCGARWTSRYDYWGQGTQVTVSS | high polyreactivity
19 | QVQLVESGGGLVQAGGSLRLSCAASASTFWKYAMGWYRQAPGKEREFVAAITRSGGNTYYADSVQGRFTISRDNAKNTVFLQMNSLKPEDTAVYYCDKVTTVPYTNDYWGQGTQVTVSS | high polyreactivity
20 | QVQLVESGGGLVQAGGSLRLSCAASASTLYYNAMAWYIQAPGKERELVAAITSGGSTSYADSVKGRFTISRDNAKNTVYLQMNSLKPEDTAVYYCAAVFYRRFDYWGQGTQVTVSS | low polyreactivity
21 | QVQLVESGGGLVQAGGSLRLSCAASASTTYYAMGWYRQAPGKERELVAAISFSGGSTFYADSVKGRFTISRDNAKNTVYLQMNCLKPEDTGVYYCATQEGPHKLDPRGYYWGQGTQVTVSS | low polyreactivity

Row | Sequence | polyreactivity (PSR sort gate)
22 | QVQLVESGGGLVQAGGSLRLSCAASDTPSSSMLMGWYRQAPGKERELVAAISGSDGTTYYADSVKGRFTISRDNAKNTVYLQMNSLKPEDTAVYYCAADDRVDSGYIKDDYWGQGTQVTVSS | low polyreactivity
23 | QVQLVESGGGLVQAGGSLRLSCAASEFIFARNGMGWYRQAPGKERELVAAITNSGSTYADSVKGRFTISRDNAKNTVYLQMNSLKPEDTAVYYCNKDPGNVSSYTGGGYWGQGTQVTVSS | low polyreactivity
24 | QVQLVESGGGLVQAGGSLRLSCAASGAIFGAITMGWYREAPGKERELVAAISKRGGSTYYADSVKGRFTSSRDNAKNTVYLQMNSLKPEDTAVYYCNATPRYLRQYVDPNWGYDYWGQGTQVTVSS | low polyreactivity
25 | QVQLVESGGGLVQAGGSLRLSCAASGAMGCYRQAPGKERELVAGITSGGSTNYADSEKGRFTISRDNAKNTVYLQMNSLKPEDTAVYYCNAVGGPRWFSVGWPYDYWGQGTQVTVSS | low polyreactivity
26 | QVQLVESGGGLVQAGGSLRLSCAASGATFGRNAMGWYRQAPGKERELVAAISWSASRTSYADSVKGRFTISRDNAKNTVYLQMNSLKPEDTAVYYCAARIWRSYYPYDYWGQGTQVTVSS | high polyreactivity
27 | QVQLVESGGGLVQAGGSLRLSCAASGATFGYYAMGWYRQAPGKEMEFVARITQRGSRTYYADSVKGRFTISRDNAKNTVYLQMNSLKPEDTAVYYCDAEVWWTHNGRGAYGYDYWGQGTHVTVSS | high polyreactivity
28 | QVQLVESGGGLVQAGGSLRLSCAASGCTIWSSAMGWYRQAPGKERELVASITWSGGSTYADSVKGRFTISRDNAKNTVYLQMNSLKPEDTAVYYCARESTLTYYSDDFDYWGQGTQVTVSS | low polyreactivity
29 | QVQLVESGGGLVQAGGSLRLSCAASGFAFSYYAMGWYRPAPGKEREFVASIDWSGGSTYYADSVKGRFTISRDNAKNTVYLQMTSLKPEDTAVYYCAAELDYFPGYDYWGQGTQVTVSS | low polyreactivity
30 | QVQLVESGGGLVQAGGSLRLSCAASGFICRGNAMGLYRQAPGKERELVASISRTGDTTYYADSVKGRFTISRDNAKNTVYLQMNSLTPEDTAVYYCARRSRVGYPLDSWGQATQVTVSS | high polyreactivity
31 | QVQLVESGGGLVQAGGSLRLSCAASGFIFADYMGWYRQAPGKERELDASISSTGSSTYADSVKGRFTISRDNAKNTVYLQMNSLKPEDTAVYYCAATGVWYSWYEYASEYDYWGQGTQVTVSS | high polyreactivity
32 | QVQLVESGGGLVQAGGSLRLSCAASGFIFAEYAMGWYRQATGKERELDAGITSGGSTSYADSVKGRFTISRDNAKNTVYLQMTSLKPDATAVYYCAATWYYHYNDWKHWYEYGYWGLGTQVTVSS | low polyreactivity
33 | QVQLVESGGGLVQAGGSLRLSCAASGFIFAGYAMGWYRQAPGKERELVAAISRRGGRTNYADSVKGRFTISRDNAKNTVYLQMNSLKPEDTAVFYCAAVQASVYYGLGRFDYWGQGTQVTVSS | high polyreactivity
34 | QVQLVESGGGLVQAGGSLRLSCAASGFIFAINAMGWYRQAPGKEREFVAAISSDGASTYYADSVKGRFTISRDNAKNTVYLQMNSLKPEDTAVYYCNAVPYEWTYPYEYYYWGQGTQVTVSS | low polyreactivity
35 | QVQLVESGGGLVQAGGSLRLSCAASGFIFAIYAMGWYRQAPGKERELVAAISSSGGSTYYADSVKGRFTISRDNAKNTVYLQMNSLKPEDTAVYYCNADWSLYWLDYWGQGTQVTVSS | high polyreactivity
36 | QVQLVESGGGLVQAGGSLRLSCAASGFIFANAIGWYRQAPGKEMELVAAITWSGDSTYYADSVKGRFTISRDNAKNTVYLQMNSLKPEDTAVYYCAAVVTNAYRYDYWGQGTQVTVSS | low polyreactivity
37 | QVQLVESGGGLVQAGGSLRLSCAASGFIFAPNVMGWYRQAPGKERELVAAINISGGSTSYADSVKGRFTISRDNAKNTVYLQMNSLKPEDTAVYYCAAEIPAYAYSYSYDYWGQGTQVTVSS | low polyreactivity
38 | QVQLVESGGGLVQAGGSLRLSCAASGFIFARYAMGWYRQAPGKERELVAAISSSGGITYYADSVKGRFTISRDNAKNTVYFQMNSLKPEDTAVYYCAAPLGGGARWGRWWLYDSWGQGTQVTVSS | low polyreactivity
39 | QVQLVESGGGLVQAGGSLRLSCAASGFIFARYAMGWYRQAPGKERELVAAISWSGARTYYADSVKGRFTISRDNAKNTVYLQMNSLKPEDTAVYYCNADYRKVTGDSYDYWGQGTQVTVSS | high polyreactivity
40 | QVQLVESGGGLVQAGGSLRLSCAASGFIFASNAMGWYRQEPGKERELVASITIGDSTYYADSVKGRFTISRDNAKNTVYLQMNSLKPEDTAVYYCAAVKTVDVGYDYWGQGTQVTVSS | low polyreactivity
41 | QVQLVESGGGLVQAGGSLRLSCAASGFIFASYARGWYRQAPGKERELVAAISSSGGSTYADSVKGRFTISRDNAKNTVYLQMNSLKPEDTAVYYCAAQGYGDNRNKYYYWGQGTQVTISS | high polyreactivity
